Experimental data reported in patent publication US20230025129A1 (KYMAB, published 2023).
Residue numbers refer to the chain shown, from its start.

T1: human matriptase-2 ECD protein his tag (human, UniProt Q8IU80 78-811)
T1 sequence: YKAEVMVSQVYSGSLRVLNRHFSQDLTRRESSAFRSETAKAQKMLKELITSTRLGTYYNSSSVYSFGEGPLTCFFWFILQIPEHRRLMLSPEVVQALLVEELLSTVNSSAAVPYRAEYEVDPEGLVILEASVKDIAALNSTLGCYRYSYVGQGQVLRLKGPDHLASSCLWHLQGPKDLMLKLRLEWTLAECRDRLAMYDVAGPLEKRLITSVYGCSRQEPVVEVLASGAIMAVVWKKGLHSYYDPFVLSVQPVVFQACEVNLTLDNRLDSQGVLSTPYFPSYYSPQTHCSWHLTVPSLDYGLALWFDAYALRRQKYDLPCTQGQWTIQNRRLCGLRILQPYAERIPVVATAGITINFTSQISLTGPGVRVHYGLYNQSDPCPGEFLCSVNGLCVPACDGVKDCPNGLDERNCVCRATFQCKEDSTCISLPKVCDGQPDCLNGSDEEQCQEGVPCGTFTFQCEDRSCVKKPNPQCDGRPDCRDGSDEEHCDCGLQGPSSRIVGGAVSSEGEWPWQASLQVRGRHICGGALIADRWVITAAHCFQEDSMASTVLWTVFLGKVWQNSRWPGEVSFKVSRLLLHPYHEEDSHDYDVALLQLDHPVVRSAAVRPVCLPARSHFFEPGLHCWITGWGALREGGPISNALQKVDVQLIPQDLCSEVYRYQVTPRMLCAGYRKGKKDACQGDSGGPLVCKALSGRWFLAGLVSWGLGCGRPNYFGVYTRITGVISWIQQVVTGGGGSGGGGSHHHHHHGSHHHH

T2: human MTP-2 expressed on HEK293 cells (human, UniProt Q8IU80 1-811)
T2 sequence: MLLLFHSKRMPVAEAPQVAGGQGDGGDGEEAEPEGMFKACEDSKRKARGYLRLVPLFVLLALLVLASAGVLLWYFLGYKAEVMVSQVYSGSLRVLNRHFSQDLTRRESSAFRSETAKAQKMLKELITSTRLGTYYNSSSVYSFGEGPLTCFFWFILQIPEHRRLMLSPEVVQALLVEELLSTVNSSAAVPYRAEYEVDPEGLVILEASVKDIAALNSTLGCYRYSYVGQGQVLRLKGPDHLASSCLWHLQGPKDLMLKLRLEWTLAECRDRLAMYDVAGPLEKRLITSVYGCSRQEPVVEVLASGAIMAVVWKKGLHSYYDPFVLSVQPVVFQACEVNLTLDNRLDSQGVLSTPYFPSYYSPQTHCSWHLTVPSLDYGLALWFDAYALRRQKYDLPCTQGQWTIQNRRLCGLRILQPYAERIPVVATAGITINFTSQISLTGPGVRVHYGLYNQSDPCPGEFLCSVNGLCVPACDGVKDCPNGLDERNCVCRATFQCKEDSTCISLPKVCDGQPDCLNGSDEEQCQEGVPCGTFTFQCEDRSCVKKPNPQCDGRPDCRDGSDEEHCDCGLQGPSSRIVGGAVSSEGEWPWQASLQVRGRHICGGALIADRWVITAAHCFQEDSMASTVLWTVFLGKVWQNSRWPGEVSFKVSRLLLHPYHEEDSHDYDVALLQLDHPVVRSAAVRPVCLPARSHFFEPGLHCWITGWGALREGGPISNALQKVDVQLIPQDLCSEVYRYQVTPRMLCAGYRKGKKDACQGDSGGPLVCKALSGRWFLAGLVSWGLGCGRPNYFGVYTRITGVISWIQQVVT

T3: mouse matriptase-2 ECD protein his tag (mouse, UniProt Q9DBI0 80-811)
T3 sequence: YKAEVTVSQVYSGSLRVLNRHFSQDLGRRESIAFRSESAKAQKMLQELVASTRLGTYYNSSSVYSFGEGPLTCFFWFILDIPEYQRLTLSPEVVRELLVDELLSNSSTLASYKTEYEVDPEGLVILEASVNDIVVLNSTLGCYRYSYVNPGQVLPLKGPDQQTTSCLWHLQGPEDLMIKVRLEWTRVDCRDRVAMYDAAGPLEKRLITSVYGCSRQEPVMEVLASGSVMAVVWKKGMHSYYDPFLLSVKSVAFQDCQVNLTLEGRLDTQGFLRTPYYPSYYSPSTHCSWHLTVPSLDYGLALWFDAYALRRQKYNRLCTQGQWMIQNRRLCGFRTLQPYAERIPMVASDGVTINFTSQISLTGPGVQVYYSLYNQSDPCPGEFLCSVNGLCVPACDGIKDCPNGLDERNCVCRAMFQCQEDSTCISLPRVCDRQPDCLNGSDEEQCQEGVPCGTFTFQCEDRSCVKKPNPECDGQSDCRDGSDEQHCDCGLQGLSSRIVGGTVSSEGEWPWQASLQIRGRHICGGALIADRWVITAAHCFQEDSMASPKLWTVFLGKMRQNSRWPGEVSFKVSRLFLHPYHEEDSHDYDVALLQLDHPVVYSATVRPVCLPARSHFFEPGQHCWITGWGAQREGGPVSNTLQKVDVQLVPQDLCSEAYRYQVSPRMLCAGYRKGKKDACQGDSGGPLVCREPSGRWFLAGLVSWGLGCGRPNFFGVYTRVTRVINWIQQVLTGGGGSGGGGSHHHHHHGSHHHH

B1: NORI-001 (antibody, human IgG4 S228P, kappa, V domains shown)
VH: QVQLVQSGAEVKKPGASVKVSCKVSGYTLSEFSIHWVRQAPGKGLEWMGGFDPEKGKTIYAQKFQGRVTMTEDTSTDTAYMDLSSLRSEDTAVYYCVTEGHFYGSGVFDFWGQGTLVTVSS
VL: DIQMTQSPSSLSASVGDRVTITCRPSQGLRFDFGWYQQRPGKAPRRLIYAASILQSGVPSRFSGSGSGTEFTLTISSLQPEDFATYYCLQHNNYPWTFGQGTKVEIKR
B2: NORI-007 (antibody, human IgG4 S228P, kappa, V domains shown)
VH: EVQLVESGGGLVKPGRSLRLSCTGSGFTFGDFGMSWFRQAPGKGLEWVCFIRSKPYGGTTDYAPSVKGRFTISRDDSISIAYLQMNSLTTEDTAVYYCSRNDILTGYYIFDYWGQGTQVTVSS
VL: DIQMTQSPSSLSASLGDSITITCQASQDITNYLIWYQHKPGKAPKLLIFDASNLETGVPSRFSGSGSGTDFTFTISSLQPEDYATYYCQQYYNLPLTFGGGTKVDIKR
B3: NORI-002 (antibody, human IgG4 S228P, kappa, V domains shown)
VH: B2 VH with K67R, T71S, I78K, S79G, A81V, T89R, D102E, Q118L
VL: B2 VL with S18R, I19V, Q27H, H38Q, K45R, N53I, Y83F
B4: NORI-015 (antibody, human IgG4 S228P, lambda, V domains shown)
VH: EVQLVESGGGLIQAGRSLRLSCAASGFTFDEHVIYWVRQIPGKGLEWISSISWKSDIIAYADSVKGRFTISRDNAKNALYLQMNSLRAEDTALYYCAREKDGDFYYYYFAMDVWGQGTTVTVSS
VL: QSALTQPPSASGSPGQSVTISCTGTSSNVGYYNYVSWYQQHPGKAPKLMIYEVNKRPSGVPDRFSGSKSANTASLTVSGLQADDEADYYCSSYAGSNKVVFGGGTKLTVLG
B5: NORI-016 (antibody, human IgG4 S228P, lambda, V domains shown)
VH: B4 VH with I34M, S52T
VL: B4 VL
B6: NORI-017 (antibody, human IgG4 S228P, lambda, V domains shown)
VH: QVHLVESGGAVVQPGRSLRLSCAASGFTFSNFDMHWVRQTPGKGLEWVTIIRYDETNIYYTESVKGRFTTSRDNSKNTLYLQMNSLRVEDTAVYYCARGWTGSYVFDYWGQGALVTVSS
VL: QSVLTQPPSVSEAPRQRVTISCSGGSSNIGNNAVNWYQQVPGKAPKLLIHYDDLLPSGVSDRFSGSKSGTSASLAISGLQSEDEADYYCAAWDDSLNGVVFGGGTKLTVLG
B7: NORI-018 (antibody, human IgG4 S228P, lambda, V domains shown)
VH: QLQLVQSGAEVKKPGASVKVSCKASGYTFTTFGIVWVRQAPGQGLEWMGWISGYNGNTKYAQNLQGRVTMTTDTSTSTAYMELRSLRSDDTAIYYCARDRAIAPRFDPWGQGTLVTVSS
VL: SYELTQPPSVSVSPGQAASIPCSGDNLGDNFACWYQQKPGQSPVLVIYQDSKRPSGIPERFSGSNSGNTATLTINGTQAMDEADYYCQAWDSSTVVFGGGTKLTVLG
B8: NORI-019 (antibody, human IgG4 S228P, lambda, V domains shown)
VH: QVQLVESGGGVVQPGRSLRLSCAASGFTFSNFDMHWVRQAPGKGLEWVAIISYDGSDKYYEDSVKGRFTISRDNSKNTLYLQMNSLRAEDTAIYYCAKDGYGSSLFDHWGQGTLVTVSS
VL: B6 VL with G25S, Y37F, V40L, K43E, A44V, H50Y, A91V, V100L
B9: NORI-020 (antibody, human IgG4 S228P, lambda, V domains shown)
VH: QLQLQESGPGLVKPAETLSLMCTVSGDSISSSHYFWGWIRQPPGKGLEWIGSMYYSGSTYYNPSLKSRVTISVDTSNNQFSLKLRSVTAADTAVYYCVRHNNWGLDNYFDYWGQGTLVTVSS
VL: SYELTQPPSVSVSPGQTARITCSADALPDQYAYWYQQKPGQAPLLVIYKDSERPSGIPERFSGSSSGTIVTLTIRGVQAEDEADYYCQSADSSGSYAVFGGGTKLTVLG
B10: NORI-021 (antibody, human IgG4 S228P, lambda, V domains shown)
VH: QVQLVESGGGLVKPGGSLRLSCAAFGFTFSDYYMGWIRQAPGKGLEWVSHISSSGRTRYYADSVKGRFTISRDNAKNALYLQMDSLRAEDTAVFYCARAQLRYFDWLDYWGQGTLVTVSS
VL: QSVLTQPPSVSAAPGQKVTISCSGSGSNIGNNYVSWYQQVPGTAPKLLIYDNNKRPSGIPDRFSGSKSGTSATLGITGLQTGDEADYYCGTWDSSLSAGVFGGGTKLTVLG
B11: NORI-004 (antibody, human IgG4 S228P, kappa, V domains shown)
VH: B2 VH with G68D, I78K, S79D, A81V, T89R, D102E, Q118L
VL: B2 VL with S18R, I19V, Q27H, H38Q, K45R, N53I, Y83F
B12: NORI-005 (antibody, human IgG4 S228P, kappa, V domains shown)
VH: EVHLVESGGGLIKPGRSLRLSCTGSGFTFGDFGLSWFRQAPGKGLEWISFIRSKPYGGTTDYAASVKGRFTISRDDSKSVAYLQMNSLKTEDSAVYYCARNEILTGYYIFDYWGQGILVTVSS
VL: DIQMTQSPSSLSASLGDRLTITCQASQDISNYLSWYQLQPGKAPKLLIFDASILETGVPSRFSGSGSGTDFSFTVSSLQPEDIATYYCQQYDNLPLTFGGGTKVDLKR

Biological target: T1, human matriptase-2 ECD protein his tag
Assay: cell-based or functional assay

Row | Binder | Inhibition enzymatic activity human MTP2 protein (IC50) [nM]
1 | B1 | 10.1
2 | B2 | 8.79
3 | B3 | 8.53
4 | B4 | 5.51
5 | B5 | 10.4
6 | B6 | 1.51
7 | B7 | 2.12
8 | B8 | 1.54
9 | B9 | 1.72
10 | B10 | 2.71
11 | B11 | 5.9
12 | B12 | 5.95

Biological target: T2, human MTP-2 expressed on HEK293 cells
Assay: cell-based or functional assay

Row | Binder | Inhibition enzymatic activity human MTP2 on cells (IC50) [nM]
13 | B6 | 0.198
14 | B7 | 2.22
15 | B8 | 0.0978
16 | B9 | 0.146
17 | B10 | 8.21

Biological target: T3, mouse matriptase-2 ECD protein his tag
Assay: cell-based or functional assay

Row | Binder | Inhibition enzymatic activity mouse MTP2 protein (IC50) [nM]
18 | B1 | 12.4
19 | B2 | 39.3
20 | B3 | 16.2
21 | B4 | 5.7
22 | B5 | 9.27
23 | B6 | 0.489
24 | B7 | 0.589
25 | B8 | 0.911
26 | B9 | 1.44
27 | B10 | 1.9
28 | B11 | 22.4
29 | B12 | 12.7
